Source: patent US20140072553A1 (MORPHOTEK, published 2014)
Where two headings read alike, the source gives them in different places.

Tests used:
[1] = target: T1, Staphylococcus enterotoxin B (Staphylococcus aureus, UniProt P01552 28-266)
T1 sequence: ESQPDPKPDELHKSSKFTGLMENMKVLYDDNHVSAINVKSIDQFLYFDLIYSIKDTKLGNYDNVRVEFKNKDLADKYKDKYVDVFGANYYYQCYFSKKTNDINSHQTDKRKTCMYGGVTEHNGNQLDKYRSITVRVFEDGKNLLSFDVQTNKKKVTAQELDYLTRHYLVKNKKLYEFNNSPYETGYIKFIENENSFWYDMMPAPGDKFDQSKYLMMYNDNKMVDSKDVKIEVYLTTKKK

[2] = target: T1, Staphylococcus enterotoxin B; assay: cell-based or functional assay
[3] = target: T1, Staphylococcus enterotoxin B; assay: cell-based or functional assay; remark: listed apart in the source

B1: human anti-SEB monoclonal antibody 100C9 (antibody, V domains shown)
VH: EVQLVESGGGLVQPGGSLRLSCSASGFTFSSYWMSWVRQAPGKGLEWVANIIQDGSEKYYADSVKGRLTISRDNAKNSLYLQMNSLRVDDTAVYYCARGYEGCSATRCYLYYFDYWGPGTLVTVSS
VL: SYVLTQPPSVSVSPGQTARITCSGDALPKQYTYWYQQKPGQAPVVVIYKDSERPSGIPERFSGSSSGTTVTVTISGVQAEDEADYYCQSADSSGTSLVFGGGTKLTVLG
Q: With B1 as the binder, how does the Kd [1] read?
A: Its Kd is 0.00975 µM.

Q: And the “EC50 of inhibition of SEB-induced IFN-γ production by human PBMC” value [2]?
A: Its value is 0.0766 mg/L.

B2: human anti-SEB monoclonal antibody 79G9 (antibody, V domains shown)
VH: EVQLEESGAGLLKPSETLSLTCAVYGGSFSGYYWSWIRQAPGKGLEWIGEIDHSGTTNYNPSLKSRVTISVETSKNQFSLRLSSVTAADSAVYYCASSGYCSHGLCPQEDWGQGTLVTVSS
VL: DIELTQSPSFLSASVGDRVAITCRASQGISNYLAWYQQKPGKAPKLLIYAAFVLQSGVPSRFSGSGSGTEFTLTISNLQPEDFATYYCQQLNSYPRAFGPGTKVDIKR
Q: Which Kd [1] does the source give for B2 here?
A: Its Kd is 0.025 µM.

Q: And the “EC50 of inhibition of SEB-induced IFN-γ production by human PBMC” value [2]?
A: Its value is 0.125 mg/L.

Q: And the “EC50 of inhibition of SEB-induced IFN-γ production by human PBMC” value [3]?
A: The value was 0.158 mg/L.

Q: And the “EC50 of inhibition of SEB-induced TNF-α production by human PBMC” value [3]?
A: The value was 0.217 mg/L.
